This note sets out measurements from the supplement of paper PMC11246515.

± gives the standard deviation of the averaged measurements.

The nature of the series: total protein half-life in vivo (active degradation + dilution); higher = more stable protein.
The mark [1] stands for this setting: E. coli NCM3722 delta-clpP, growth: N-lim chemostat, doubling time 6 h.
The mark [2] stands for this setting: E. coli NCM3722 delta-hslV, growth: N-lim chemostat, doubling time 6 h.
Where [3] appears, read: E. coli NCM3722 delta-lon, growth: N-lim chemostat, doubling time 6 h.
The mark [4] stands for this setting: E. coli NCM3722 delta-smpB, growth: N-lim chemostat, doubling time 6 h.
The mark [5] stands for this setting: wild type E. coli NCM3722, growth: C-lim chemostat, doubling time 3 h.
The mark [6] stands for this setting: wild type E. coli NCM3722, growth: C-lim chemostat, doubling time 6 h.
Setting [7] is: wild type E. coli NCM3722, growth: N-lim chemostat, doubling time 6 h.
Where [8] appears, read: wild type E. coli NCM3722, growth: N-lim chemostat, doubling time 12 h.
Setting [9] is: wild type E. coli NCM3722, growth: P-lim chemostat, doubling time 6 h.
[10] abbreviates: wild type E. coli NCM3722, growth: P-lim chemostat, doubling time 12 h.
Setting [11] is: E. coli NCM3722 delta-clpP delta-lon delta-hslV, growth: N-lim chemostat, doubling time 6 h.
Where [12] appears, read: wild type E. coli NCM3722, growth: C-lim chemostat, doubling time 12 h.

In the case of “MNKSRQKELTRWLKQQSVISQRWLNISRLLGFVSGILIIAQAWFMARILQHMIMENIPREALLLPFTLLVLTFVLRAWVVWLRERVGYHAGQHIRFAIRRQVLDRLQQAGPAWIQGKPAGSWATLVLEQIDDMHDYYARYLPQMALAVSVPLLIVVAIFPSNWAAALILLGTAPLIPLFMALVGMGAADANRRNFLALARLSGHFLDRLRGMETLRIFGRGEAEIESIRSASEDFRQRTMEVLRLAFLSSGILEFFTSLSIALVAVYFGFSYLGELDFGHYDTGVTLAAGFLALILAPEFFQPLRDLGTFYHAKAQAVGAADSLKTFMETPLAHPQRGEAELASTDPVTIEAEELFITSPEGKTLAGPLNFTLPAGQRAVLVGRSGSGKSSLLNALSGFLSYQGSLRINGIELRDLSPESWRKHLSWVGQNPQLPAATLRDNVLLARPDASEQELQAALDNAWVSEFLPLLPQGVDTPVGDQAARLSVGQAQRVAVARALLNPCSLLLLDEPAASLDAHSEQRVMEALNAASLRQTTLMVTHQLEDLADWDVIWVMQDGRIIEQGRYAELSVAGGPFATLLAHRQEEI”, the “total protein half-life in vivo” value is 6.56 ± 0.17 h under setting [1]; 5.94 ± 0.14 h under setting [2]; 6.1322 ± 0.0016 h under setting [3]; 5.95 ± 0.69 h under setting [4]; 3.54 ± 0.42 h under setting [5]; 5.88 ± 0.21 h under setting [6]. Also, the “total protein half-life in vivo” value under setting [7] is 6.42 ± 0.35 h, the “total protein half-life in vivo” value under setting [8] was found to be 12.7 ± 1.1 h, the “total protein half-life in vivo” value under setting [9] is 6.33 ± 0.11 h and the “total protein half-life in vivo” value under setting [10] stood at 11.8 ± 0.91 h.

For “MESPLGSDLARLVRIWRALIDHRLKPLELTQTHWVTLHNIHQLPPDQSQIQLAKAIGIEQPSLVRTLDQLEEKGLISRQTCASDRRAKRIKLTEKAEPLISEMEAVINKTRAEILHGISAEELEQLITLIAKLEHNIIELQAKG [P0A8W2]”, the “total protein half-life in vivo” value is, setting by setting: under setting [11], 5.958 ± 0.04 h; under setting [1], 5.81 ± 0.18 h; under setting [2], 5.88 ± 0.54 h; under setting [4], 5.79 ± 0.084 h; under setting [5], 3.38 ± 0.4 h; under setting [6], 5.19 ± 0.19 h. The “total protein half-life in vivo” value runs as follows: under setting [12], 11.38 ± 0.033 h; under setting [7], 5.01 ± 0.34 h; under setting [8], 11 ± 2.7 h; under setting [9], 4.64 ± 1.1 h; under setting [10], 9.76 ± 0.57 h.

Consider “MAVAMDNAILENILRQVRPLIGQGKVADYIPALATVDGSRLGIAICTVDGQLFQAGDAQERFSIQSISKVLSLVVAMRHYSEEEIWQRVGKDPSGSPFNSLVQLEMEQGIPRNPFINAGALVVCDMLQGRLSAPRQRMLEVVRGLSGVSDISYDTVVARSEFEHSARNAAIAWLMKSFGNFHHDVTTVLQNYFHYCALKMSCVELARTFVFLANQGKAIHIDEPVVTPMQARQINALMATSGMYQNAGEFAWRVGLPAKSGVGGGIVAIVPHEMAIAVWSPELDDAGNSLAGIAVLEQLTKQLGRSVY [P0A6W0]”, for which the “total protein half-life in vivo” value under setting [11] was determined as 5.51 ± 0.69 h; the “total protein half-life in vivo” value under setting [1] was found to be 6.48 ± 0.19 h; the “total protein half-life in vivo” value under setting [2] came to 6.52 ± 0.92 h; the “total protein half-life in vivo” value under setting [4] turned out to be 6.07 ± 0.46 h; the “total protein half-life in vivo” value under setting [5] was determined as 3.12 ± 0.28 h; the “total protein half-life in vivo” value under setting [12] stood at 12.8 ± 0.64 h. Also, the “total protein half-life in vivo” value is 5.88 ± 1.1 h under setting [7], 12.2 ± 1.5 h under setting [8], 5.82 ± 0.85 h under setting [9] and 13.1 ± 0.95 h under setting [10].

Take “MQPFGVLDRYIGKTIFTTIMMTLFMLVSLSGIIKFVDQLKKAGQGSYDALGAGMYTLLSVPKDVQIFFPMAALLGALLGLGMLAQRSELVVMQASGFTRMQVALSVMKTAIPLVLLTMAIGEWVAPQGEQMARNYRAQAMYGGSLLSTQQGLWAKDGNNFVYIERVKGDEELGGISIYAFNENRRLQSVRYAATAKFDPEHKVWRLSQVDESDLTNPKQITGSQTVSGTWKTNLTPDKLGVVALDPDALSISGLHNYVKYLKSSGQDAGRYQLNMWSKIFQPLSVAVMMLMALSFIFGPLRSVPMGVRVVTGISFGFVFYVLDQIFGPLTLVYGIPPIIGALLPSASFFLISLWLLMRKS [P0ADC6]”: the “total protein half-life in vivo” value is, setting by setting: under setting [1], 6.53 ± 0.4 h; under setting [2], 6.81 ± 0.8 h; under setting [3], 6.01 ± 0.47 h; under setting [4], 6.08 ± 0.48 h; under setting [6], 6.69 ± 0.65 h; under setting [12], 12.3 ± 0.43 h. Further, the “total protein half-life in vivo” value was found to be 6.06 ± 0.099 h under setting [7], 12.9 ± 0.5 h under setting [8], 6.22 ± 0.49 h under setting [9] and 13.5 ± 0.88 h under setting [10].

Regarding “MIRVACVGITVMDRIYYVEGLPTESGKYVARNYTEVGGGPAATAAVAAARLGAQVDFIGRVGDDDTGNSLLAELESWGVNTRYTKRYNQAKSSQSAIMVDTKGERIIINYPSPDLLPDAEWLEEIDFSQWDVVLADVRWHDGAKKAFTLARQAGVMTVLDGDITPQDISELVALSDHAAFSEPGLARLTGVKEMASALKQAQTLTNGHVYVTQGSAGCDWLENGGRQHQPAFKVDVVDTTGAGDVFHGALAVALATSGDLAESVRFASGVAALKCTRPGGRAGIPDCDQTRSFLSLFV”, the “total protein half-life in vivo” value under setting [11] amounted to 6.62 ± 1.4 h, the “total protein half-life in vivo” value under setting [5] was 2.49 ± 0.19 h, the “total protein half-life in vivo” value under setting [6] came out at 5.95 ± 1.4 h and the “total protein half-life in vivo” value under setting [12] was 7.92 ± 0.52 h.

For the sequence “MSRSLLTNETSELDLLDQRPFDQTDFDILKSYEAVVDGLAMLIGSHCEIVLHSLQDLKCSAIRIANGEHTGRKIGSPITDLALRMLHDMTGADSSVSKCYFTRAKSGVLMKSLTIAIRNREQRVIGLLCINMNLDVPFSQIMSTFVPPETPDVGSSVNFASSVEDLVTQTLEFTIEEVNADRNVSNNAKNRQIVLNLYEKGIFDIKDAINQVADRLNISKHTVYLYIRQFKSGDFQGQDK”, the “total protein half-life in vivo” value worked out at 6.19 ± 0.97 h under setting [11]; 4.65 ± 0.54 h under setting [1]; 3.52 ± 0.076 h under setting [2]; 3.21 ± 0.28 h under setting [3]; 3.38 ± 0.41 h under setting [4]; 2.482 ± 0.004 h under setting [5]. Besides, the “total protein half-life in vivo” value turned out to be 4.69 ± 1.3 h under setting [6]; 6.93 ± 0.81 h under setting [12]; 3.36 ± 0.46 h under setting [7]; 4.95 ± 1.1 h under setting [8]; 3.94 ± 0.15 h under setting [9]; 6.94 ± 0.43 h under setting [10].

Consider “MRRLPGILLLTGAALVVIAALLVSGLRIALPHLDAWRPEILNKIESATGMPVEASQLSASWQNFGPTLEAHDIRAELKDGGEFSVKRVTLALDVWQSLLHMRWQFRDLTFWQLRFRTNTPITSGGSDDSLEASHISDLFLRQFDHFDLRDSEVSFLTPSGQRAELAIPQLTWLNDPRRHRAEGLVSLSSLTGQHGVMQVRMDLRDDEGLLSNGRVWLQADDIDLKPWLGKWMQDNIALETAQFSLEGWMTIDKGDVTGGDVWLKQGGASWLGEKQTHTLSVDNLTAHITRENPGWQFSIPDTRITMDGKPWPSGALTLAWIPEQDVGGKDNKRSDELRIRASNLELAGLEGIRPLAAKLSPALGDVWRSTQPSGKINTLALDIPLQAADKTRFQASWSDLAWKQWKLLPGAEHFSGTLSGSVENGLLTASMKQAKMPYETVFRAPLEIADGQATISWLNNNKGFQLDGRNIDVKAKAVHARGGFRYLQPANDEPWLGILAGISTDDGSQAWRYFPENLMGKDLVDYLSGAIQGGEADNATLVYGGNPQLFPYKHNEGQFEVLVPLRNAKFAFQPDWPALTNLDIELDFINDGLWMKTDGVNLGGVRASNLTAVIPDYSKEKLLIDADIKGPGKAVGPYFDETPLKDSLGATLQELQLDGDVNARLHLDIPLNGELVTAKGEVTLRNNSLFIKPLDSTLKNLSGKFSFINSDLQSEPLTASWFNQPLNVDFSTKEGAKAYQVAVNLNGNWQPAKTGVLPEAVNEALSGSVAWDGKVGIDLPYHAGATYNIELNGDLKNVSSHLPSPLAKPAGEPLAVNVKVDGNLNSFELTGQAGADNHFNSRWLLGQKLTLDRAIWAADSKTLPPLPEQSGVELNMPPMNGAEWLALFQKGAAESVGGAASFPQHITLRTPMLSLGNQQWNNLSIVSQPTANGTLVEAQGREINATLAMRNNAPWLANIKYLYYNPSVAKTRGDSTPSSPFPTTERINFRGWPDAQIRCTECWFWGQKFGRIDSDITISGDTLTLTNGLIDTGFSRLTADGEWVNNPGNERTSLKGKLRGQKIDAAAEFFGVTTPIRQSSFNVDYDLHWRKAPWQPDEATLNGIIHTQLGKGEITEINTGHAGQLLRLLSVDALMRKLRFDFRDTFGEGFYFDSIRSTAWIKDGVMHTDDTLVDGLEADIAMKGSVNLVRRDLNMEAVVAPEISATVGVAAAFAVNPIVGAAVFAASKVLGPLWSKVSILRYHISGPLDDPQINEVLRQPRKEKAQ”, for which the “total protein half-life in vivo” value was found to be 6.25 ± 0.48 h under setting [11]; 6.38 ± 0.3 h under setting [1]; 6.18 ± 0.12 h under setting [2]; 6.21 ± 0.18 h under setting [3]; 5.844 ± 0.013 h under setting [4]; 3.185 ± 0.015 h under setting [5]. The “total protein half-life in vivo” value reads like this: under setting [6], 6.62 ± 0.46 h; under setting [12], 12.6 ± 0.73 h; under setting [7], 6.11 ± 0.16 h; under setting [8], 12.2 ± 1.2 h; under setting [9], 5.67 ± 0.26 h; under setting [10], 9.67 ± 1.6 h.
